B1: P07437 (protein, UniProt P07437 1-444, looked up)
chain: MREIVHIQAGQCGNQIGAKFWEVISDEHGIDPTGTYHGDSDLQLDRISVYYNEATGGKYVPRAILVDLEPGTMDSVRSGPFGQIFRPDNFVFGQSGAGNNWAKGHYTEGAELVDSVLDVVRKEAESCDCLQGFQLTHSLGGGTGSGMGTLLISKIREEYPDRIMNTFSVVPSPKVSDTVVEPYNATLSVHQLVENTDETYCIDNEALYDICFRTLKLTTPTYGDLNHLVSATMSGVTTCLRFPGQLNADLRKLAVNMVPFPRLHFFMPGFAPLTSRGSQQYRALTVPELTQQVFDAKNMMAACDPRHGRYLTVAAVFRGRMSMKEVDEQMLNVQNKNSSYFVEWIPNNVKTAVCDIPPRGLKMAVTFIGNSTAIQELFKRISEQFTAMFRRKAFLHWYTGEGMDEMEFTEAESNMNDLVSEYQQYQDATAEEEEDFGEEAEEEA
modifications: full-length
B2: Q13885 (protein, UniProt Q13885 1-445, looked up)
chain: MREIVHIQAGQCGNQIGAKFWEVISDEHGIDPTGSYHGDSDLQLERINVYYNEAAGNKYVPRAILVDLEPGTMDSVRSGPFGQIFRPDNFVFGQSGAGNNWAKGHYTEGAELVDSVLDVVRKESESCDCLQGFQLTHSLGGGTGSGMGTLLISKIREEYPDRIMNTFSVMPSPKVSDTVVEPYNATLSVHQLVENTDETYSIDNEALYDICFRTLKLTTPTYGDLNHLVSATMSGVTTCLRFPGQLNADLRKLAVNMVPFPRLHFFMPGFAPLTSRGSQQYRALTVPELTQQMFDSKNMMAACDPRHGRYLTVAAIFRGRMSMKEVDEQMLNVQNKNSSYFVEWIPNNVKTAVCDIPPRGLKMSATFIGNSTAIQELFKRISEQFTAMFRRKAFLHWYTGEGMDEMEFTEAESNMNDLVSEYQQYQDATADEQGEFEEEEGEDEA
modifications: full-length
B3: Q13409 (protein, UniProt Q13409 1-638, looked up)
chain: MSDKSELKAELERKKQRLAQIREEKKRKEEERKKKETDQKKEAVAPVQEESDLEKKRREAEALLQSMGLTPESPIVFSEYWVPPPMSPSSKSVSTPSEAGSQDSGDGAVGSRTLHWDTDPSVLQLHSDSDLGRGPIKLGMAKITQVDFPPREIVTYTKETQTPVMAQPKEDEEEDDDVVAPKPPIEPEEEKTLKKDEENDSKAPPHELTEEEKQQILHSEEFLSFFDHSTRIVERALSEQINIFFDYSGRDLEDKEGEIQAGAKLSLNRQFFDERWSKHRVVSCLDWSSQYPELLVASYNNNEDAPHEPDGVALVWNMKYKKTTPEYVFHCQSAVMSATFAKFHPNLVVGGTYSGQIVLWDNRSNKRTPVQRTPLSAAAHTHPVYCVNVVGTQNAHNLISISTDGKICSWSLDMLSHPQDSMELVHKQSKAVAVTSMSFPVGDVNNFVVGSEEGSVYTACRHGSKAGISEMFEGHQGPITGIHCHAAVGAVDFSHLFVTSSFDWTVKLWTTKNNKPLYSFEDNADYVYDVMWSPTHPALFACVDGMGRLDLWNLNNDTEVPTASISVEGNPALNRVRWTHSGREIAVGDSEGQIVIYDVGEQIAVPRNDEWARFGRTLAEINANRADAEEEAATRIPA
modifications: full-length
B4: Q9BUF5 (protein, UniProt Q9BUF5 1-446, looked up)
chain: MREIVHIQAGQCGNQIGTKFWEVISDEHGIDPAGGYVGDSALQLERINVYYNESSSQKYVPRAALVDLEPGTMDSVRSGPFGQLFRPDNFIFGQTGAGNNWAKGHYTEGAELVDAVLDVVRKECEHCDCLQGFQLTHSLGGGTGSGMGTLLISKIREEFPDRIMNTFSVMPSPKVSDTVVEPYNATLSVHQLVENTDETYCIDNEALYDICFRTLKLTTPTYGDLNHLVSATMSGVTTSLRFPGQLNADLRKLAVNMVPFPRLHFFMPGFAPLTSRGSQQYRALTVPELTQQMFDARNMMAACDPRHGRYLTVATVFRGPMSMKEVDEQMLAIQSKNSSYFVEWIPNNVKVAVCDIPPRGLKMASTFIGNSTAIQELFKRISEQFSAMFRRKAFLHWFTGEGMDEMEFTEAESNMNDLVSEYQQYQDATANDGEEAFEDEEEEIDG
modifications: full-length
B5: Q14247 (protein, UniProt Q14247 1-550, looked up)
chain: MWKASAGHAVSIAQDDAGADDWETDPDFVNDVSEKEQRWGAKTVQGSGHQEHINIHKLRENVFQEHQTLKEKELETGPKASHGYGGKFGVEQDRMDKSAVGHEYQSKLSKHCSQVDSVRGFGGKFGVQMDRVDQSAVGFEYQGKTEKHASQKDYSSGFGGKYGVQADRVDKSAVGFDYQGKTEKHESQRDYSKGFGGKYGIDKDKVDKSAVGFEYQGKTEKHESQKDYVKGFGGKFGVQTDRQDKCALGWDHQEKLQLHESQKDYKTGFGGKFGVQSERQDSAAVGFDYKEKLAKHESQQDYSKGFGGKYGVQKDRMDKNASTFEDVTQVSSAYQKTVPVEAVTSKTSNIRANFENLAKEKEQEDRRKAEAERAQRMAKERQEQEEARRKLEEQARAKTQTPPVSPAPQPTEERLPSSPVYEDAASFKAELSYRGPVSGTEPEPVYSMEAADYREASSQQGLAYATEAVYESAEAPGHYPAEDSTYDEYENDLGITAVALYDYQAAGDDEISFDPDDIITNIEMIDDGWWRGVCKGRYGLFPANYVELRQ
modifications: full-length
B6: SF3B3 (protein)
chain: MFLYNLTLQRATGISFAIHGNFSGTKQQEIVVSRGKILELLRPDPNTGKVHTLLTVEVFGVIRSLMAFRLTGGTKDYIVVGSDSGRIVILEYQPSKNMFEKIHQETFGKSGCRRIVPGQFLAVDPKGRAVMISAIEKQKLVYILNRDAAARLTISSPLEAHKANTLVYHVVGVDVGFENPMFACLEMDYEEADNDPTGEAAANTQQTLTFYELDLGLNHVVRKYSEPLEEHGNFLITVPGGSDGPSGVLICSENYITYKNFGDQPDIRCPIPRRRNDLDDPERGMIFVCSATHKTKSMFFFLAQTEQGDIFKITLETDEDMVTEIRLKYFDTVPVAAAMCVLKTGFLFVASEFGNHYLYQIAHLGDDDEEPEFSSAMPLEEGDTFFFQPRPLKNLVLVDELDSLSPILFCQIADLANEDTPQLYVACGRGPRSSLRVLRHGLEVSEMAVSELPGNPNAVWTVRRHIEDEFDAYIIVSFVNATLVLSIGETVEEVTDSGFLGTTPTLSCSLLGDDALVQVYPDGIRHIRADKRVNEWKTPGKKTIVKCAVNQRQVVIALTGGELVYFEMDPSGQLNEYTERKEMSADVVCMSLANVPPGEQRSRFLAVGLVDNTVRIISLDPSDCLQPLSMQALPAQPESLCIVEMGGTEKQDELGERGSIGFLYLNIGLQNGVLLRTVLDPVTGDLSDTRTRYLGSRPVKLFRVRMQGQEAVLAMSSRSWLSYSYQSRFHLTPLSYETLEFASGFASEQCPEGIVAISTNTLRILALEKLGAVFNQVAFPLQYTPRKFVIHPESNNLIIIETDHNAYTEATKAQRKQQMAEEMVEAAGEDERELAAEMAAAFLNENLPESIFGAPKAGNGQWASVIRVMNPIQGNTLDLVQLEQNEAAFSVAVCRFSNTGEDWYVLVGVAKDLILNPRSVAGGFVYTYKLVNNGEKLEFLHKTPVEEVPAAIAPFQGRVLIGVGKLLRVYDLGKKKLLRKCENKHIANYISGIQTIGHRVIVSDVQESFIWVRYKRNENQLIIFADDTYPRWVTTASLLDYDTVAGADKFGNICVVRLPPNTNDEVDEDPTGNKALWDRGLLNGASQKAEVIMNYHVGETVLSLQKTTLIPGGSESLVYTTLSGGIGILVPFTSHEDHDFFQHVEMHLRSEHPPLCGRDHLSFRSYYFPVKNVIDGDLCEQFNSMEPNKQKNVSEELDRTPPEVSKKLEDIRTRYAF

Test system: proteins that co-immunoprecipitated with DUX4-CTD constructs expressed in MB135 myoblasts
Test: LC-MS of proteins co-immunoprecipitated with DUX4-CTD (Table 1) and western validation
Type: binding, human
Design: key to 4. mL1dL2 + Dox + IFNG / 4. + IFNG mix / 4. longCTD + Dox + IFNG / 3. + IFNg + Dox longCTD / 3. + Dox longCTD / 3. + IFNG longCTD: peptide-spectrum matches (PSMs) per protein
Conditions: for 4. longCTD + Dox + IFNG: LC-MS counts of the listed protein co-immunoprecipitated with DUX4-CTD bait longCTD, experiment 4, Dox + IFNG; for 3. + Dox longCTD / 3. + IFNG longCTD / 3. + IFNg + Dox longCTD: bait longCTD; for 3. + Dox longCTD: experiment 3, Dox only; for 3. + IFNG longCTD: experiment 3, IFNG only, no doxycycline (bait at background level); for 3. + IFNg + Dox longCTD: experiment 3, IFNg + Dox; for SUM of PSMS: sum over all samples
In short: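 Two independent experiments compared uninduced, doxycycline and doxycycline+IFNG MB135iDUX4-CTD (plus MB135iDUX4mL1dL2) myoblasts. Anti-FLAG pulldowns (3 h, 4 °C) were eluted in LDS buffer for western validation or with FLAG peptide for trypsin digestion and Orbitrap LC-MS; hits needed ≥2 PSMs in both experiments, ranked by total PSMs.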

| Molecule | 4. longCTD + Dox + IFNG | 3. + Dox longCTD | 3. + IFNG longCTD | 3. + IFNg + Dox longCTD | SUM of PSMS | 4. mL1dL2 + Dox + IFNG (LC-MS value per protein co-immunoprecipitated with DUX4-CTD construct mL1dL2 in MB135 myoblasts, + Dox + IFNG, kind of count not given) |
| --- | --- | --- | --- | --- | --- | --- |
| B1 | 110 | 41 | 14 | 75 | 315 | – |
| B2 | 99 | 35 | 13 | 61 | 208 | – |
| B3 | 4 | – | – | 1 | 5 | – |
| B4 | 46 | 20 | – | 39 | 128 | – |
| B5 | 5 | – | – | 1 | 6 | – |
| B6 | – | – | – | – | – | 10 |
